Target: T1, purified p53 protein (Abcam) (UniProt P04637 1-393)
T1 construct: p53 protein bought from Abcam; also called immobilized p53; source: bought: Abcam
Assay: ELISA; solid phase direct binding assay; p53 immobilised on 96-well plates at 5 μg/well, 20 h, 4 °C; 3% BSA; GST-tagged Kindlin-2 variants or GST 0–7 µM in TBS with 1 mM CaCl2, 1 mM MgCl2, 2 h at 37 °C; detected with anti-GST-HRP; GST signal subtracted; one-site binding fit
Settings: both partners purified

T1 sequence (P04637 whole entry): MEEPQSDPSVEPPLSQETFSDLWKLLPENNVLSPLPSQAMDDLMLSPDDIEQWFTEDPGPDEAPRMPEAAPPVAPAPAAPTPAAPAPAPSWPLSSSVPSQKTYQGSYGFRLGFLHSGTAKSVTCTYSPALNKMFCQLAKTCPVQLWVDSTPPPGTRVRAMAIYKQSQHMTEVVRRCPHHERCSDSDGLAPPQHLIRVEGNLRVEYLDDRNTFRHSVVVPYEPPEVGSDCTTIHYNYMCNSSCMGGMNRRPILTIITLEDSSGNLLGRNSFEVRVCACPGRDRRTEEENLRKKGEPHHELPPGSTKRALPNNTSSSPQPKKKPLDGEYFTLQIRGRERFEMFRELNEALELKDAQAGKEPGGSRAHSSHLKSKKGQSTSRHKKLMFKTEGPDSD

- EC50: 480 nM
B1: GST-tagged full-length wild-type Kindlin-2 (natural protein, UniProt Q96AC1 1-680, looked up)
chain: MALDGIRMPDGCYADGTWELSVHVTDLNRDVTLRVTGEVHIGGVMLKLVEKLDVKKDWSDHALWWEKKRTWLLKTHWTLDKYGIQADAKLQFTPQHKLLRLQLPNMKYVKVKVNFSDRVFKAVSDICKTFNIRHPEELSLLKKPRDPTKKKKKKLDDQSEDEALELEGPLITPGSGSIYSSPGLYSKTMTPTYDAHDGSPLSPTSAWFGDSALSEGNPGILAVSQPITSPEILAKMFKPQALLDKAKINQGWLDSSRSLMEQDVKENEALLLRFKYYSFFDLNPKYDAIRINQLYEQAKWAILLEEIECTEEEMMMFAALQYHINKLSIMTSENHLNNSDKEVDEVDAALSDLEITLEGGKTSTILGDITSIPELADYIKVFKPKKLTLKGYKQYWCTFKDTSISCYKSKEESSGTPAHQMNLRGCEVTPDVNISGQKFNIKLLIPVAEGMNEIWLRCDNEKQYAHWMAACRLASKGKTMADSSYNLEVQNILSFLKMQHLNPDPQLIPEQITTDITPECLVSPRYLKKYKNKQITARILEAHQNVAQMSLIEAKMRFIQAWQSLPEFGITHFIARFQGGKKEELIGIAYNRLIRMDASTGDAIKTWRFSNMKQWNVNWEIKMVTVEFADEVRLSFICTEVDCKVVHEFIGGYIFLSTRAKDQNESLDEEMFYKLTSGWV
notes: Kindlin-2, full length, wild type; expressed as a GST fusion protein; also called Kindlin-2-GST; GST-tagged WT Kindlin-2; source: Escherichia coli, purified on Glutathione-Sepharose

— publication PMC6629707, “The Kindlin2-p53-SerpinB2 signaling axis is required for cellular senescence in breast cancer” (Cell Death & Disease, 2019)
